This is an account of results in the supplement of paper PMC5998384.

The test system of series [1] is HeLa Kyoto. Kind of series: solubility in G1/S (NP-40 vs SDS abundance) (log2 ratio); higher = more soluble. The note with it: cell cycle stage: G1/S.
Series [2] relates to HeLa Kyoto. Kind of series: melting temperature (median over replicates), in situ; higher = more thermally stable.
The subject of series [3] is HeLa Kyoto. Kind of series: solubility change mitosis vs G1/S (difference of NP-40 vs SDS log2 ratios) (log2 ratio difference); higher = more soluble in mitosis.
In series [4] the test system is HeLa Kyoto. Kind of series: thermal stability score vs G1/S (z-score of summed log2 fold changes over temperatures); higher = more thermally stable than in G1/S.
Setting [5] is: cell cycle stage: early G1 (4.5 h after nocodazole release).
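Wherever melting temperature (median over replicates), in situ is given: HeLa Kyoto cells synchronized by double thymidine or nocodazole block, proteins quantified by TMT10plex mass spectrometry, three independent biological replicates.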
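Wherever solubility change mitosis vs G1/S (difference of NP-40 vs SDS log2 ratios) is given: synchronized HeLa Kyoto cells (double thymidine block for G1/S, nocodazole release for mitosis), protein amounts in NP-40 versus SDS lysates quantified by mass spectrometry, three biological replicates.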
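Wherever solubility in G1/S (NP-40 vs SDS abundance) is given: HeLa Kyoto cells arrested at G1/S by double thymidine block, proteins quantified by TMT10plex mass spectrometry in mild NP-40 versus SDS extracts, three biological replicates.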
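Wherever thermal stability score vs G1/S (z-score of summed log2 fold changes over temperatures) is given: synchronized HeLa Kyoto cells, proteins quantified by TMT10plex mass spectrometry, three biological replicates, mitosis taken 0.5 h after nocodazole release, G1/S directly after double thymidine block.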

With “MAPNIYLVRQRISRLGQRMSGFQINLNPLKEPLGFIKVLEWIASIFAFATCGGFKGQTEIQVNCPPAVTENKTVTATFGYPFRLNEASFQPPPGVNICDVNWKDYVLIGDYSSSAQFYVTFAVFVFLYCIAALLLYVGYTSLYLDSRKLPMIDFVVTLVATFLWLVSTSAWAKALTDIKIATGHNIIDELPPCKKKAVLCYFGSVTSMGSLNVSVIFGFLNMILWGGNAWFVYKETSLHSPSNTSAPHSQGGIPPPTGI [SYPL1]”, in the series on HeLa Kyoto [1], the “solubility in G1/S (log2)” value is -0.227. Further, the melting temperature in the series with HeLa Kyoto [2] (cell cycle stage: G1/S) worked out at 56.1 °C; with HeLa Kyoto [2] (cell cycle stage: mitosis), 56.9 °C. In addition, in the series with HeLa Kyoto [3], the “solubility change mitosis (log2)” value was 0.0843. Besides, the thermal stability score in the series with HeLa Kyoto [4] (setting [5]) is -3.54; in the series on HeLa Kyoto [4] (cell cycle stage: mitosis), -3.06.
Regarding “MAPPSVFAEVPQAQPVLVFKLTADFREDPDPRKVNLGVGAYRTDDCHPWVLPVVKKVEQKIANDNSLNHEYLPILGLAEFRSCASRLALGDDSPALKEKRVGGVQSLGGTGALRIGADFLARWYNGTNNKNTPVYVSSPTWENHNAVFSAAGFKDIRSYRYWDAEKRGLDLQGFLNDLENAPEFSIVVLHACAHNPTGIDPTPEQWKQIASVMKHRFLFPFFDSAYQGFASGNLERDAWAIRYFVSEGFEFFCAQSFSKNFGLYNERVGNLTVVGKEPESILQVLSQMEKIVRITWSNPPAQGARIVASTLSNPELFEEWTGNVKTMADRILTMRSELRARLEALKTPGTWNHITDQIGMFSFTGLNPKQVEYLVNEKHIYLLPSGRINVSGLTTKNLDYVATSIHEAVTKIQ [GOT1]”, in the series on HeLa Kyoto [1], the “solubility in G1/S (log2)” value stood at 0.34. The melting temperature with HeLa Kyoto [2] (cell cycle stage: G1/S) stood at 58.1 °C; in the series on HeLa Kyoto [2] (cell cycle stage: mitosis), 64.1 °C. Further, the “solubility change mitosis (log2)” value in the series with HeLa Kyoto [3] was -0.116. Besides, the results for the thermal stability score with HeLa Kyoto [4] (setting [5]) and with HeLa Kyoto [4] (cell cycle stage: mitosis) were -1.19 and -1.58, respectively.
With “MAPQNLSTFCLLLLYLIGAVIAGRDFYKILGVPRSASIKDIKKAYRKLALQLHPDRNPDDPQAQEKFQDLGAAYEVLSDSEKRKQYDTYGEEGLKDGHQSSHGDIFSHFFGDFGFMFGGTPRQQDRNIPRGSDIIVDLEVTLEEVYAGNFVEVVRNKPVARQAPGKRKCNCRQEMRTTQLGPGRFQMTQEVVCDECPNVKLVNEERTLEVEIEPGVRDGMEYPFIGEGEPHVDGEPGDLRFRIKVVKHPIFERRGDDLYTNVTISLVESLVGFEMDITHLDGHKVHISRDKITRPGAKLWKKGEGLPNFDNNNIKGSLIITFDVDFPKEQLTEEAREGIKQLLKQGSVQKVYNGLQGY [DNAJB11]”, the “solubility in G1/S (log2)” value in the series on HeLa Kyoto [1] worked out at 0.337. Also, the melting temperature in the series on HeLa Kyoto [2] (cell cycle stage: G1/S) was 54.7 °C; in the series on HeLa Kyoto [2] (cell cycle stage: mitosis) it was 55 °C. The “solubility change mitosis (log2)” value with HeLa Kyoto [3] is -0.0195. Also, the thermal stability score in the series on HeLa Kyoto [4] (setting [5]) amounted to 3; in the series on HeLa Kyoto [4] (cell cycle stage: mitosis), 0.842.
Consider “MAPRLQLEKAAWRWAETVRPEEVSQEHIETAYRIWLEPCIRGVCRRNCKGNPNCLVGIGEHIWLGEIDENSFHNIDDPNCERRKKNSFVGLTNLGATCYVNTFLQVWFLNLELRQALYLCPSTCSDYMLGDGIQEEKDYEPQTICEHLQYLFALLQNSNRRYIDPSGFVKALGLDTGQQQDAQEFSKLFMSLLEDTLSKQKNPDVRNIVQQQFCGEYAYVTVCNQCGRESKLLSKFYELELNIQGHKQLTDCISEFLKEEKLEGDNRYFCENCQSKQNATRKIRLLSLPCTLNLQLMRFVFDRQTGHKKKLNTYIGFSEILDMEPYVEHKGGSYVYELSAVLIHRGVSAYSGHYIAHVKDPQSGEWYKFNDEDIEKMEGKKLQLGIEEDLAEPSKSQTRKPKCGKGTHCSRNAYMLVYRLQTQEKPNTTVQVPAFLQELVDRDNSKFEEWCIEMAEMRKQSVDKGKAKHEEVKELYQRLPAGAEPYEFVSLEWLQKWLDESTPTKPIDNHACLCSHDKLHPDKISIMKRISEYAADIFYSRYGGGPRLTVKALCKECVVERCRILRLKNQLNEDYKTVNNLLKAAVKGSDGFWVGKSSLRSWRQLALEQLDEQDGDAEQSNGKMNGSTLNKDESKEERKEEEELNFNEDILCPHGELCISENERRLVSKEAWSKLQQYFPKAPEFPSYKECCSQCKILEREGEENEALHKMIANEQKTSLPNLFQDKNRPCLSNWPEDTDVLYIVSQFFVEEWRKFVRKPTRCSPVSSVGNSALLCPHGGLMFTFASMTKEDSKLIALIWPSEWQMIQKLFVVDHVIKITRIEVGDVNPSETQYISEPKLCPECREGLLCQQQRDLREYTQATIYVHKVVDNKKVMKDSAPELNVSSSETEEDKEEAKPDGEKDPDFNQSNGGTKRQKISHQNYIAYQKQVIRRSMRHRKVRGEKALLVSANQTLKELKIQIMHAFSVAPFDQNLSIDGKILSDDCATLGTLGVIPESVILLKADEPIADYAAMDDVMQVCMPEEGFKGTGLLGH [USP48]”, for which the “solubility in G1/S (log2)” value with HeLa Kyoto [1] is -0.074. The values for the melting temperature with HeLa Kyoto [2] (cell cycle stage: G1/S) and in the series with HeLa Kyoto [2] (cell cycle stage: mitosis) were 47.4 °C and 49.1 °C, respectively. The “solubility change mitosis (log2)” value with HeLa Kyoto [3] was -0.183. Besides, the thermal stability score is 1.52 with HeLa Kyoto [4] (setting [5]) and 2.6 in the series on HeLa Kyoto [4] (cell cycle stage: mitosis).
As to “MAPSTPLLTVRGSEGLYMVNGPPHFTESTVFPRESGKNCKVCIFSKDGTLFAWGNGEKVNIISVTNKGLLHSFDLLKAVCLEFSPKNTVLATWQPYTTSKDGTAGIPNLQLYDVKTGTCLKSFIQKKMQNWCPSWSEDETLCARNVNNEVHFFENNNFNTIANKLHLQKINDFVLSPGPQPYKVAVYVPGSKGAPSFVRLYQYPNFAGPHAALANKSFFKADKVTMLWNKKATAVLVIASTDVDKTGASYYGEQTLHYIATNGESAVVQLPKNGPIYDVVWNSSSTEFCAVYGFMPAKATIFNLKCDPVFDFGTGPRNAAYYSPHGHILVLAGFGNLRGQMEVWDVKNYKLISKPVASDSTYFAWCPDGEHILTATCAPRLRVNNGYKIWHYTGSILHKYDVPSNAELWQVSWQPFLDGIFPAKTITYQAVPSEVPNEEPKVATAYRPPALRNKPITNSKLHEEEPPQNMKPQSGNDKPLSKTALKNQRKHEAKKAAKQEARSDKSPDLAPTPAPQSTPRNTVSQSISGDPEIDKKIKNLKKKLKAIEQLKEQAATGKQLEKNQLEKIQKETALLQELEDLELGI [EIF2A]”, in the series with HeLa Kyoto [1], the “solubility in G1/S (log2)” value was found to be 0.224. Moreover, the melting temperature in the series on HeLa Kyoto [2] (cell cycle stage: G1/S) was determined as 52.1 °C; in the series on HeLa Kyoto [2] (cell cycle stage: mitosis), 51.7 °C. In addition, in the series on HeLa Kyoto [3], the “solubility change mitosis (log2)” value was -0.121. The thermal stability score with HeLa Kyoto [4] (setting [5]) was -0.606; in the series on HeLa Kyoto [4] (cell cycle stage: mitosis) it was -1.22.
For “MAPVEHVVADAGAFLRHAALQDIGKNIYTIREVVTEIRDKATRRRLAVLPYELRFKEPLPEYVRLVTEFSKKTGDYPSLSATDIQVLALTYQLEAEFVGVSHLKQEPQKVKVSSSIQHPETPLHISGFHLPYKPKPPQETEKGHSACEPENLEFSSFMFWRNPLPNIDHELQELLIDRGEDVPSEEEEEEENGFEDRKDDSDDDGGGWITPSNIKQIQQELEQCDVPEDVRVGCLTTDFAMQNVLLQMGLHVLAVNGMLIREARSYILRCHGCFKTTSDMSRVFCSHCGNKTLKKVSVTVSDDGTLHMHFSRNPKVLNPRGLRYSLPTPKGGKYAINPHLTEDQRFPQLRLSQKARQKTNVFAPDYIAGVSPFVENDISSRSATLQVRDSTLGAGRRRLNPNASRKKFVKKR [NOB1]”, the “solubility in G1/S (log2)” value with HeLa Kyoto [1] was -0.457. The melting temperature in the series on HeLa Kyoto [2] (cell cycle stage: G1/S) worked out at 50.3 °C; in the series with HeLa Kyoto [2] (cell cycle stage: mitosis), 49.8 °C. The “solubility change mitosis (log2)” value with HeLa Kyoto [3] was determined as 0.197. The thermal stability score with HeLa Kyoto [4] (setting [5]) came to 0.938; with HeLa Kyoto [4] (cell cycle stage: mitosis), 0.387.
For “MAPVHGDDSLSDSGSFVSSRARREKKSKKGRQEALERLKKAKAGEKYKYEVEDFTGVYEEVDEEQYSKLVQARQDDDWIVDDDGIGYVEDGREIFDDDLEDDALDADEKGKDGKARNKDKRNVKKLAVTKPNNIKSMFIACAGKKTADKAVDLSKDGLLGDILQDLNTETPQITPPPVMILKKKRSIGASPNPFSVHTATAVPSGKIASPVSRKEPPLTPVPLKRAEFAGDDVQVESTEEEQESGAMEFEDGDFDEPMEVEEVDLEPMAAKAWDKESEPAEEVKQEADSGKGTVSYLGSFLPDVSCWDIDQEGDSSFSVQEVQVDSSHLPLVKGADEEQVFHFYWLDAYEDQYNQPGVVFLFGKVWIESAETHVSCCVMVKNIERTLYFLPREMKIDLNTGKETGTPISMKDVYEEFDEKIATKYKIMKFKSKPVEKNYAFEIPDVPEKSEYLEVKYSAEMPQLPQDLKGETFSHVFGTNTSSLELFLMNRKIKGPCWLEVKSPQLLNQPVSWCKVEAMALKPDLVNVIKDVSPPPLVVMAFSMKTMQNAKNHQNEIIAMAALVHHSFALDKAAPKPPFQSHFCVVSKPKDCIFPYAFKEVIEKKNVKVEVAATERTLLGFFLAKVHKIDPDIIVGHNIYGFELEVLLQRINVCKAPHWSKIGRLKRSNMPKLGGRSGFGERNATCGRMICDVEISAKELIRCKSYHLSELVQQILKTERVVIPMENIQNMYSESSQLLYLLEHTWKDAKFILQIMCELNVLPLALQITNIAGNIMSRTLMGGRSERNEFLLLHAFYENNYIVPDKQIFRKPQQKLGDEDEEIDGDTNKYKKGRKKAAYAGGLVLDPKVGFYDKFILLLDFNSLYPSIIQEFNICFTTVQRVASEAQKVTEDGEQEQIPELPDPSLEMGILPREIRKLVERRKQVKQLMKQQDLNPDLILQYDIRQKALKLTANSMYGCLGFSYSRFYAKPLAALVTYKGREILMHTKEMVQKMNLEVIYGDTDSIMINTNSTNLEEVFKLGNKVKSEVNKLYKLLEIDIDGVFKSLLLLKKKKYAALVVEPTSDGNYVTKQELKGLDIVRRDWCDLAKDTGNFVIGQILSDQSRDTIVENIQKRLIEIGENVLNGSVPVSQFEINKALTKDPQDYPDKKSLPHVHVALWINSQGGRKVKAGDTVSYVICQDGSNLTASQRAYAPEQLQKQDNLTIDTQYYLAQQIHPVVARICEPIDGIDAVLIATWLGLDPTQFRVHHYHKDEENDALLGGPAQLTDEEKYRDCERFKCPCPTCGTENIYDNVFDGSGTDMEPSLYRCSNIDCKASPLTFTVQLSNKLIMDIRRFIKKYYDGWLICEEPTCRNRTRHLPLQFSRTGPLCPACMKATLQPEYSDKSLYTQLCFYRYIFDAECALEKLTTDHEKDKLKKQFFTPKVLQDYRKLKNTAEQFLSRSGYSEVNLSKLFAGCAVKS [POLA1]”, the “solubility in G1/S (log2)” value in the series with HeLa Kyoto [1] is -0.19. In addition, the melting temperature came to 49 °C in the series with HeLa Kyoto [2] (cell cycle stage: G1/S) and 50.1 °C with HeLa Kyoto [2] (cell cycle stage: mitosis). Further, in the series with HeLa Kyoto [3], the “solubility change mitosis (log2)” value was -0.107. For the same sequence, the thermal stability score in the series on HeLa Kyoto [4] (setting [5]) came to 1.03; in the series with HeLa Kyoto [4] (cell cycle stage: mitosis), 3.37.
